# Columns and labels:
# [1] = biological target: Staphylococcus aureus protein A (Staphylococcus aureus) (UniProt P38507); assay: particle-based immunoassay read by flow cytometry; protein A covalently coupled (EDC/sulfo-NHS) to 6 μm (PAH/PAA)2 polyelectrolyte microcapsules; 10 μg purified BBM.1 in 1 mL PBS pH 8.2, 2 h; detected with GαM-AF488; dose-response also in PBS pH 7.2 and complete RPMI
# [2] = biological target: Staphylococcus aureus protein A (Staphylococcus aureus) (UniProt P38507); assay: particle-based immunoassay read by flow cytometry; protein A covalently coupled (EDC/sulfo-NHS) to 2.35 μm carboxylated PS beads; 10 μg purified BBM.1 in 1 mL PBS pH 8.2, 2 h; detected with GαM-AF488
substance,measurement,setting,value
murine monoclonal antibody BBM.1,mean fluorescence intensity (MFI),[1],33.5
same,mean fluorescence intensity (MFI),[2],12.2

# — article PMC6054379
